From patent US20200332017A1 (SALUBRIS CHENGDU BIOTECH, published 2020)
Like-named read-outs stand apart in the source and are kept apart here.

Columns and labels:
[1] = molecular target: T1, full length human CD40 (uniprot # P25942-1) on the membrane of 293T-CD40 cells (human, UniProt P25942 21-277); experiment: cell-based or functional assay
[2] = molecular target: T2, Human CD40-his protein (Acro biosystems, Cat # CD0-H5228) (human, UniProt P25942 21-193); experiment: SPR, Biacore; human CD40-his
T2 construct: Bought reagent; not shown: his tag
Source text: (§1) Briefly, goat anti-mouse IgG (GE healthcare, Cat # BR100838, Mouse Antibody Capture Kit) was covalently linked to a CM5 or a Protein G chip (carboxy methyl dextran coated chip) via primary amines, using a standard amine coupling kit provided by Biacore (GE healthcare, Pittsburgh, Pa., USA). Un-reacted moieties on the biosensor surface were blocked with ethanolamine. […] Then, human CD40-his (Acro biosystems, Cat # CD0-H5228) or cynomolgus monkey CD40-his protein (Acro biosystems, Cat # CD0-052H6) in HBS EP buffer (provided by Biacore) was flowed onto the chip at a flow rate of 30 μL/min. The antigen-antibody association kinetics was followed for 2 minutes and the dissociation kinetics was followed for 10 minutes. The association and dissociation curves were fit to a 1:1 Langmuir binding model using BIA evaluation software.

[3] = molecular target: T1, full length human CD40 (uniprot # …); experiment: flow cytometry on 293T-CD40 cells
Method: (§2) 2×10⁵ cells per well in 96 well-plates were incubated with the mouse anti-CD40 antibodies or the controls of various concentrations in FACS buffer for 40 minutes on ice. […] Following an incubation of 40 minutes at 4° C. in dark, cells were washed three times and resuspended in FACS buffer. Fluorescence was measured using a Becton Dickinson FACS Canto II-HTS equipment and plotted against antibody concentration.

[4] = molecular target: T3, human CD40-Fc protein (amino acid residue 21-193 of SEQ ID NO: 67 linked to N-terminus of amino acid residue … (human, biotin-labeled in the capture ELISA and in the benchmark blocking ELISA; unlabeled when coated in the ligand blocking ELISA); experiment: capture ELISA; antibody captured, biotin-labeled human CD40-Fc in solution
T3 construct: also called biotin-labeled human CD40-Fc; human CD40-Fc-biotin
Method: (§3) Plates were washed 4 times with wash buffer (PBS+0.05% Tween-20, PBST) and then blocked with 200 μl/well blocking buffer (5% w/v non-fatty milk in PBST) for 2 hours at 37° C. […] After a final wash, plates were incubated with 100 μl/well ELISA substrate TMB (Innoreagents, Cat # TMB-S-002). The reaction was stopped in 15 minutes at 25° C. with 50 μl/well 1M H₂SO₄, and the absorbance was read at 450 nm and plotted against antibody concentration. Data were analyzed using Graphpad Prism software and EC₅₀ values were reported.

[5] = molecular target: T3, human CD40-Fc protein (amino acid …); experiment: competitive ELISA; coated human CD40-Fc, competitor biotin human CD40L-his
Method: (§4) Briefly, human CD40-Fc proteins (amino acid residue 21-193 of SEQ ID NO: 67 linked to N-terminus of amino acid residue 99-330 of SEQ ID NO.: 24) were coated on 96-well micro plates at 2 μg/mL in coating buffer (PBS) and incubated overnight at 4° C. The next day, plates were washed with wash buffer (PBS+0.05% Tween-20, PBST), and blocked with 5% w/v non-fatty milk in PBST for 2 hours at 37° C. Plates were then washed again using wash buffer.
(§5) Serially diluted the mouse anti-CD40 antibodies of the present invention or the controls (starting at 200 nM with a four-fold serial dilution) in 2.5% w/v non-fatty milk in PBST were prepared to the plates and incubated with the human CD40-Fc proteins at room temperature for 40 minutes. […] Plates were washed again. 100 μl/well of streptavidin conjugated HRP was added and incubated for 40 minutes at 37° C. Plates were washed again using wash buffer. Finally, TMB was added and the reaction was stopped using 1M H₂SO₄, and the absorbance was read at 450 nm. Data were analyzed using Graphpad Prism software and IC₅₀ values were reported.

[6] = molecular target: T1, full length human CD40 (uniprot # …); experiment: flow cytometry on 293T-CD40 cells, PE-labeled secondary antibody, MFI
Method: as §2

[7] = molecular target: T3, human CD40-Fc protein (amino acid …); experiment: capture ELISA (antibody captured on coated anti-IgG F(ab')2, biotin-labeled human CD40-Fc in solution, streptavidin-HRP, OD(450-630))
Method: as §3

[8] = molecular target: T3, human CD40-Fc protein (amino acid …); experiment: ligand blocking ELISA: human CD40-Fc coated, antibody titrated, then biotin-labeled human CD40L-his (blocked ligand), streptavidin-HRP, OD(450-630)
Method: as §4, §5

[9] = molecular target: T2, Human CD40-his protein (Acro …); experiment: SPR, Biacore; antibody captured, human CD40-his flowed
Source text: as §1

[10] = molecular target: T3, human CD40-Fc protein (amino acid …); experiment: capture ELISA; antibody captured, biotin-labeled human CD40-Fc in solution; remark: listed apart in the source
Method: as §3

[11] = molecular target: T3, human CD40-Fc protein (amino acid …); experiment: capture ELISA (antibody captured on coated goat anti-human IgG F(ab')2, biotin-labeled human CD40-Fc in solution, streptavidin-HRP, OD(450-630))

| Cell-based Reporter assay (EC50, nM) [1] [nM] | Kd [2] [nM] | EC50 [3] [nM] | EC50 [4] [nM] | IC50 [5] [nM] | EC50 (read off the curve) [6] [nM] | EC50 (read off the curve) [7] [ng/mL] | IC50 (read off the curve) [8] [nM] | Kd [9] [nM] | koff [9] [s⁻¹] | kon [9] [M⁻¹ s⁻¹] | EC50 [10] [nM] | EC50 (read off the curve) [11] [ng/mL] | Binder |
| --- | --- | --- | --- | --- | --- | --- | --- | --- | --- | --- | --- | --- | --- |
| 3.65 | 3.62 | 0.538 | 0.19 | 5.19 | ~0.5 | ~20 | ~5 | – | – | – | – | – | mouse anti-CD40 monoclonal antibody C1C1 (antibody, V domains shown, those are used here for the chimeric antibody only; also called Mouse C1C1; mouse C1C1) VH: EVKLVESGGGLVKPGASLKLSCAASGFTFSNYGMSWVRQNSDKRLEWVASISSGGDDTYYPDNVKGRCTISRENAKNTLYLEMSSLKTEDTALYYCTRAGGKAMDYWGQGTSVTVST VL: DIVLTQSPATLSVIPGNSVSLSCRASQSIRDNLHWYQQKSHESPRLLINYASQSISGIPSRFSGSGSGTDFTLTINSVETEDFGIYFCQQFNSWPLTFGGGTKLELK |
| – | 5.98 | – | – | – | – | – | – | 7.09 | 0.00575 | 810000 | 0.236 | ~30 | chimeric antibody C1C1 (antibody, human IgG1, kappa, V domains shown, also called chC1C1; chimeric C1C1) VH: EVKLVESGGGLVKPGASLKLSCAASGFTFSNYGMSWVRQNSDKRLEWVASISSGGDDTYYPDNVKGRCTISRENAKNTLYLEMSSLKTEDTALYYCTRAGGKAMDYWGQGTSVTVST VL: DIVLTQSPATLSVIPGNSVSLSCRASQSIRDNLHWYQQKSHESPRLLINYASQSISGIPSRFSGSGSGTDFTLTINSVETEDFGIYFCQQFNSWPLTFGGGTKLELKR |
